Source: article PMC2033583, “Temperature sensitivity for conformation is an intrinsic property of wild-type p53”

Molecular target: p53 (murine wild-type) (mouse, UniProt P02340 1-390)
Experiment: EMSA; 1,10-phenanthroline, 20 min at 30 C; PAb 421; at least partially resistant to chelator; EMSA on 4% polyacrylamide gels with PAb 421, reticulocyte lysate p53 pre-exposed to OP 20 min at 30 or 37 C; binding buffer, salt and pH not given (as in Hainaut and Milner 1993b)
Conditions: protein: ivt; chain copies: 4; label: 32P

Chain of p53 (murine wild-type) (P02340 whole entry): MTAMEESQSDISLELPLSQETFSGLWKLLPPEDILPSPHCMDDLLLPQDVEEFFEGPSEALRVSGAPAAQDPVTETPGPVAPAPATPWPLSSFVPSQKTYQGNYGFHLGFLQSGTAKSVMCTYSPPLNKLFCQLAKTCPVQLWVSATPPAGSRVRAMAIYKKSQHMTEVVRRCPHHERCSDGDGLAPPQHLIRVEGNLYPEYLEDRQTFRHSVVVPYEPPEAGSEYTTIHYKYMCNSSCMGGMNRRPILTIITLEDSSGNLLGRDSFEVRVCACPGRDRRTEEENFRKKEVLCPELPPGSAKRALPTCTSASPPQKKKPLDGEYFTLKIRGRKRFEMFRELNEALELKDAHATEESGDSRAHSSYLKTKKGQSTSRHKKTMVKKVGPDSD

B1: p53 CON (dsDNA)
DNA 1: GGGCATGTCCGGGCATGTCC
DNA 2: GGACATGCCCGGACATGCCC
  binding result: binds
